Results as given in patent US20070077617.

Legend:
[1] = biological target: fusion protein PRA
[2] = biological target: fusion protein PRC
[3] = biological target: fusion protein PRD
[4] = biological target: fusion protein PRE
[5] = biological target: fusion protein PRF
[6] = biological target: fusion protein PRG
[7] = biological target: fusion protein PRH
[8] = biological target: fusion protein PRI
[9] = biological target: fusion protein PRK
[10] = biological target: fusion protein PRL
[11] = biological target: fusion protein PRM
[12] = biological target: fusion protein PRN
[13] = biological target: fusion protein PRP
[14] = biological target: fusion protein PRQ
[15] = biological target: fusion protein PRR
[16] = biological target: fusion protein PRS
[17] = biological target: fusion protein PRT
[18] = biological target: fusion protein PRW
[19] = biological target: fusion protein PRY

Measured: relative cleavage efficiency

Chain of fusion protein PRK (chain, as listed by the source): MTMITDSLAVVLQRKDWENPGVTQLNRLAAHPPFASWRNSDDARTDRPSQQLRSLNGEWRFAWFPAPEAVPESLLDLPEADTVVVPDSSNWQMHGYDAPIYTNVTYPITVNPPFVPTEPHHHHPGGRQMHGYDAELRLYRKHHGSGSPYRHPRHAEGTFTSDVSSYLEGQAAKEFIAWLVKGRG
Chain of fusion protein PRN (chain, as listed by the source): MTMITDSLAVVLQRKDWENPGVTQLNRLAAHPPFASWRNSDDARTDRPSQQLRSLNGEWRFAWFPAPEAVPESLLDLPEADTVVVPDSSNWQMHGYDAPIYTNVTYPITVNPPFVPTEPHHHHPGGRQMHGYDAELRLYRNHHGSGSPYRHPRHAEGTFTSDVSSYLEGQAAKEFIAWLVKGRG
Chain of fusion protein PRG (chain, as listed by the source): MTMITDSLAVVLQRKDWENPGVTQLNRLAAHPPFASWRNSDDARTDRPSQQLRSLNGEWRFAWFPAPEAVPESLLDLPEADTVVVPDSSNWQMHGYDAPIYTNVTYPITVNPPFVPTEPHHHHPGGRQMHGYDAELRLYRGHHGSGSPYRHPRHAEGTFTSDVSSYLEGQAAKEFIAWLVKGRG
Chain of fusion protein PRD (chain, as listed by the source): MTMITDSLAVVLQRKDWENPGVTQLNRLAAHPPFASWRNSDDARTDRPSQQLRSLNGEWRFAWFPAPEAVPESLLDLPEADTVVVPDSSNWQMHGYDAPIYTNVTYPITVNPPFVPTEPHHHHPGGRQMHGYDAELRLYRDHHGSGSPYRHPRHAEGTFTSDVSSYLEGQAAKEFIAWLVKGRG
Chain of fusion protein PRE (chain, as listed by the source): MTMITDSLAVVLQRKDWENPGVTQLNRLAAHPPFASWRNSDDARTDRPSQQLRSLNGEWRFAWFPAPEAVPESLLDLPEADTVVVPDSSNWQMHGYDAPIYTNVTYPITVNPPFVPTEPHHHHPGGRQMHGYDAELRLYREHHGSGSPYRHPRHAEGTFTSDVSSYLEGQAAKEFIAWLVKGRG
Chain of fusion protein PRL (chain, as listed by the source): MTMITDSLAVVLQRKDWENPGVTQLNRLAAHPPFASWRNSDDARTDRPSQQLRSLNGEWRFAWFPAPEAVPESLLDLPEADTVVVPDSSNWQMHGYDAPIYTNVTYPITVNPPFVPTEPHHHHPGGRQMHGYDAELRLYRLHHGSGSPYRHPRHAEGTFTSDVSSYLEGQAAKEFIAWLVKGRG
Chain of fusion protein PRH (chain, as listed by the source): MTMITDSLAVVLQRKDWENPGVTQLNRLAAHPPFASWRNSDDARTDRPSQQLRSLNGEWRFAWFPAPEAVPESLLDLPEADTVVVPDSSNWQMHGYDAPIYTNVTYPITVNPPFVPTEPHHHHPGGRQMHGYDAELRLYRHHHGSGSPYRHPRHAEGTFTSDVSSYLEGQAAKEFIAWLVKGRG
Chain of fusion protein PRC (chain, as listed by the source): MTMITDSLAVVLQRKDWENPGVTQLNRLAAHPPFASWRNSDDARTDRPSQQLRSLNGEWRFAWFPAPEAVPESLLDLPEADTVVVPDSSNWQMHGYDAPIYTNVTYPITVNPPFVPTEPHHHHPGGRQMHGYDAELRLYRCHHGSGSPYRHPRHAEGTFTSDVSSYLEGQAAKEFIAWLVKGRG
Chain of fusion protein PRA (chain, as listed by the source): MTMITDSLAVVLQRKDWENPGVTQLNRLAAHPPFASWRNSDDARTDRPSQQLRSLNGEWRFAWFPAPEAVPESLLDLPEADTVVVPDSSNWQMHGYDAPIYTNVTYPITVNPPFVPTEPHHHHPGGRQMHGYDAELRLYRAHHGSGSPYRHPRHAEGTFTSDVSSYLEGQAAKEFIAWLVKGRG
Chain of fusion protein PRM (chain, as listed by the source): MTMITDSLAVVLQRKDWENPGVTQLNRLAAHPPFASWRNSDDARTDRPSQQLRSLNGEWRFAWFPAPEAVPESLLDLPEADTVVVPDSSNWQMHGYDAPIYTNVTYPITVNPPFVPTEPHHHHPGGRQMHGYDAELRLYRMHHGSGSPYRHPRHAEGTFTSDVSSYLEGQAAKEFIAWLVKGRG
Chain of fusion protein PRW (chain, as listed by the source): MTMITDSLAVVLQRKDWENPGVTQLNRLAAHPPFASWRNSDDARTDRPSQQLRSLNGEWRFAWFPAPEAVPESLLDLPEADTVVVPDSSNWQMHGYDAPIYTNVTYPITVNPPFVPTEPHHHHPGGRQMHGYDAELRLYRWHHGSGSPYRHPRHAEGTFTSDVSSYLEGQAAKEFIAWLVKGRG
Chain of fusion protein PRY (chain, as listed by the source): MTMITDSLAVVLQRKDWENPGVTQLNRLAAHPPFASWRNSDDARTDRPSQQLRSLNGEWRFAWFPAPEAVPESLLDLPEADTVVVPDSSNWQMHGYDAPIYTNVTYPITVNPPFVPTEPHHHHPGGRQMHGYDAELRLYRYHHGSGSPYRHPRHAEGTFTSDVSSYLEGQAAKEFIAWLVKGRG
Chain of fusion protein PRF (chain, as listed by the source): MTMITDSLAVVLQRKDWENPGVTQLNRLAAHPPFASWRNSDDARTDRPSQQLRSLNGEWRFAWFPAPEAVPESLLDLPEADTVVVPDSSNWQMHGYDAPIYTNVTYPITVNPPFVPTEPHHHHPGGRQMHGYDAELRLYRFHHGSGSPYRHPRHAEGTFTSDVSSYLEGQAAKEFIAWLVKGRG
Chain of fusion protein PRS (chain, as listed by the source): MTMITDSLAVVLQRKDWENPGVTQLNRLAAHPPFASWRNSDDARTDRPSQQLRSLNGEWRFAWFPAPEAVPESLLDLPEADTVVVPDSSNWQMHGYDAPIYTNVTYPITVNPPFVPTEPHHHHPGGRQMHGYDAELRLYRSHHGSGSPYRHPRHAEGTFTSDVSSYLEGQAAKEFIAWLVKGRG
Chain of fusion protein PRI (chain, as listed by the source): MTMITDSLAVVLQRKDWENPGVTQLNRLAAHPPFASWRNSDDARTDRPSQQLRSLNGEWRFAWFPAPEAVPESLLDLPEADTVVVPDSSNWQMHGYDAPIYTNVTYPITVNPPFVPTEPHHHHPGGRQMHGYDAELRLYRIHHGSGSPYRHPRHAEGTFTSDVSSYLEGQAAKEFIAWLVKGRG
Chain of fusion protein PRQ (chain, as listed by the source): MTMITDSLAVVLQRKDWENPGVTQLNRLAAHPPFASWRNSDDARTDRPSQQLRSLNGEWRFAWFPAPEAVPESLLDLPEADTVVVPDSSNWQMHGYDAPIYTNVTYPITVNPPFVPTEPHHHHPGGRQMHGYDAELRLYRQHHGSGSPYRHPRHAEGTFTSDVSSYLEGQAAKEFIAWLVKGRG
Chain of fusion protein PRT (chain, as listed by the source): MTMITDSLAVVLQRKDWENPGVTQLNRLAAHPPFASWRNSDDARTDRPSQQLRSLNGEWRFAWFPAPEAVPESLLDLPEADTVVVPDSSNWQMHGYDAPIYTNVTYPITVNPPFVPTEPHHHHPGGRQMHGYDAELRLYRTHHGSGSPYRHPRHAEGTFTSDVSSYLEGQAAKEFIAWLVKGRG
Chain of fusion protein PRR (chain, as listed by the source): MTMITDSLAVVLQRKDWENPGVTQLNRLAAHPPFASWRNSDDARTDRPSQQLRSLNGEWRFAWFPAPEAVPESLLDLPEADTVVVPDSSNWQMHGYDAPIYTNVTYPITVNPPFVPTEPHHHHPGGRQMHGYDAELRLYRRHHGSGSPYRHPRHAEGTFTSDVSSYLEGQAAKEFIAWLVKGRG

B1: OmpT protease variant OmpT D97V (protein)
chain: STETLSFTPDNINADISLGTLSGKTKERVYLAEEGGRKVSQLDWKFNNAAIIKGAINWDLMPQISIGAAGWTTLGSRGGNMVDQDWMDSSNPGTWTVESRHPDTQLNYANEFDLNIKGWLLNEPNYRLGLMAGYQESRYSFTARGGSYIYSSEEGFRDDIGSFPNGERAIGYKQRFKMPYIGLTGSYRYEDFELGGTFKYSGWVESSDNDEHYDPGKRITYRSKVKDQNYYSVAVNAGYYVTPNAKVYVEGAWNRVTNKKGNTSLYDHNNNTSDYSKNGAGIENYNFITTAGLKYTF
less than 3.0%: all assays above

B2: OmpT protease variant OmpT D97P (protein)
chain: STETLSFTPDNINADISLGTLSGKTKERVYLAEEGGRKVSQLDWKFNNAAIIKGAINWDLMPQISIGAAGWTTLGSRGGNMVDQDWMDSSNPGTWTPESRHPDTQLNYANEFDLNIKGWLLNEPNYRLGLMAGYQESRYSFTARGGSYIYSSEEGFRDDIGSFPNGERAIGYKQRFKMPYIGLTGSYRYEDFELGGTFKYSGWVESSDNDEHYDPGKRITYRSKVKDQNYYSVAVNAGYYVTPNAKVYVEGAWNRVTNKKGNTSLYDHNNNTSDYSKNGAGIENYNFITTAGLKYTF
less than 3.0%: all assays above

B3: OmpT protease variant OmpT D97W (protein)
chain: STETLSFTPDNINADISLGTLSGKTKERVYLAEEGGRKVSQLDWKFNNAAIIKGAINWDLMPQISIGAAGWTTLGSRGGNMVDQDWMDSSNPGTWTWESRHPDTQLNYANEFDLNIKGWLLNEPNYRLGLMAGYQESRYSFTARGGSYIYSSEEGFRDDIGSFPNGERAIGYKQRFKMPYIGLTGSYRYEDFELGGTFKYSGWVESSDNDEHYDPGKRITYRSKVKDQNYYSVAVNAGYYVTPNAKVYVEGAWNRVTNKKGNTSLYDHNNNTSDYSKNGAGIENYNFITTAGLKYTF
less than 3.0%: all assays above

B4: OmpT protease variant OmpT D97G (protein)
chain: STETLSFTPDNINADISLGTLSGKTKERVYLAEEGGRKVSQLDWKFNNAAIIKGAINWDLMPQISIGAAGWTTLGSRGGNMVDQDWMDSSNPGTWTGESRHPDTQLNYANEFDLNIKGWLLNEPNYRLGLMAGYQESRYSFTARGGSYIYSSEEGFRDDIGSFPNGERAIGYKQRFKMPYIGLTGSYRYEDFELGGTFKYSGWVESSDNDEHYDPGKRITYRSKVKDQNYYSVAVNAGYYVTPNAKVYVEGAWNRVTNKKGNTSLYDHNNNTSDYSKNGAGIENYNFITTAGLKYTF
less than 3.0%: all assays above

B5: OmpT protease variant OmpT D97I (protein)
chain: STETLSFTPDNINADISLGTLSGKTKERVYLAEEGGRKVSQLDWKFNNAAIIKGAINWDLMPQISIGAAGWTTLGSRGGNMVDQDWMDSSNPGTWTIESRHPDTQLNYANEFDLNIKGWLLNEPNYRLGLMAGYQESRYSFTARGGSYIYSSEEGFRDDIGSFPNGERAIGYKQRFKMPYIGLTGSYRYEDFELGGTFKYSGWVESSDNDEHYDPGKRITYRSKVKDQNYYSVAVNAGYYVTPNAKVYVEGAWNRVTNKKGNTSLYDHNNNTSDYSKNGAGIENYNFITTAGLKYTF
less than 3.0%: all assays above

B6: OmpT protease variant OmpT D97Y (protein)
chain: STETLSFTPDNINADISLGTLSGKTKERVYLAEEGGRKVSQLDWKFNNAAIIKGAINWDLMPQISIGAAGWTTLGSRGGNMVDQDWMDSSNPGTWTYESRHPDTQLNYANEFDLNIKGWLLNEPNYRLGLMAGYQESRYSFTARGGSYIYSSEEGFRDDIGSFPNGERAIGYKQRFKMPYIGLTGSYRYEDFELGGTFKYSGWVESSDNDEHYDPGKRITYRSKVKDQNYYSVAVNAGYYVTPNAKVYVEGAWNRVTNKKGNTSLYDHNNNTSDYSKNGAGIENYNFITTAGLKYTF
less than 3.0%: all assays above
